The source of these data is patent publication US20050233406A1, “Methods for high resolution identification of solvent accessible amide hydrogens in polypeptides and for characterization of polypeptide structure” (priority 2002, published 2005).

The target in this assay is T1, RIIα isoform of PKA (regulatory subunit) (Mus musculus, UniProt P12367).
T1 construct: made in house; host or cells: E. coli BL21 (DE3)
Nature of the assay: Surface plasmon resonance binding of D-AKAP2 to immobilized RIIα (BIAcore 3000). Set-up: species or system murine. The conditions noted are these: 1:1 binding model, average of three replicates, read-out: Kd (dissociation constant). The procedure:
FIG. 2 depicts the binding of D-AKAP2 to the regulatory subunit (RIIα) of PKA as determined using surface plasmon resonance. A total of 450 response units of RIIα were immobilized to a cAMP sensor chip. Serial dilutions (250-2 nM) of D-AKAP2 were injected over the surface. Both the one rate (kon) and the off rate (koff) were fit globally using the concentration series. A 1:1 binding model fits the data well and is illustrated as a bold line.
Binding of RIIa to D-AKAP2 was performed using a BIAcore 3000 (BIAcore). The regulatory subunit of PKA was immobilized to a CM5 chip (BIAcore) as described (Herberg et al., J. Mol. Biol., 298:329-339, 2000). […]
To evaluate the functional properties of this protein, binding of D-AKAP2 to the RIIα isoform of PKA was examined using surface plasmon resonance (Herberg et al., J. Mol. Biol. 298:329-339, 2000). […] D-AKAP2 was injected over the surface at varying concentrations and the affinity determined by fitting the curves to a 1:1 binding model (see FIG. 2).
A general note: SPR reads the build-up and loss of mass on a sensor chip optically.

T1 sequence (P12367 whole entry, canonical isoform): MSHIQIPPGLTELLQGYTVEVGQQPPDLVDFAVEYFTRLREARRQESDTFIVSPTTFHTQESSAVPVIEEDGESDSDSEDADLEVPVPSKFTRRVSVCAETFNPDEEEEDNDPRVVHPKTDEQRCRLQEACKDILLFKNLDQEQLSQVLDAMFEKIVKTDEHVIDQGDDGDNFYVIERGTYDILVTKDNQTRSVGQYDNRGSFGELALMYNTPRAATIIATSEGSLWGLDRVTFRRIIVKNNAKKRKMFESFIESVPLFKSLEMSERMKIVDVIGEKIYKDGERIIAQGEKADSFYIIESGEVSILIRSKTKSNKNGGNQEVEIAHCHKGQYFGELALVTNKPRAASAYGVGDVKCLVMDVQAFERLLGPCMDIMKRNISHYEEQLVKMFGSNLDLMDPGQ

In the case of “AKB domain alone: PKA kinase binding (AKB) domain of D-AKAP2 (residues 336-360), tested alone without the rest of the protein (DPNCFVLAQAVVFSAMEQEHFSEFL; UniProt O88845 336-360, looked up, fragment)”, the Kd – broadly, a measure of binding affinity in units of concentration – came out at 2 nM.
